Columns and labels:
[1] = molecular target: mutant CycT14MUT(280) (UniProt O60563); test: co-IP
[2] = molecular target: mutant CycT14MUT (UniProt O60563); test: co-IP

fold change of co-IP against WT CycT1(280) [1] | fold change of co-IP against WT CycT1 [2] | Binder
5.1 fold | 5.7 fold | DN Siah1C75S (enzyme) MSRQTATALPTGTSKCPPSQRVPALTGTTASNNDLASLFECPVCFDYVLPPILQCQSGHLVCSNCRPKLTCCPTSRGPLGSIRNLAMEKVANSVLFPCKYASSGCEITLPHTEKADHEELCEFRPYSCPCPGASCKWQGSLDAVMPHLMHQHKSITTLQGEDIVFLATDINLPGAVDWVMMQSCFGFHFMLVLEKQEKYDGHQQFFAIVQLIGTRKQAENFAYRLELNGHRRRLTWEATPRSIHEGIATAIMNSDCLVFDTSIAQLFAENGNLGINVTISMC
8.9 fold | 8.3 fold | WT Siah2 (enzyme) MSRPSSTGPSANKPCSKQPPPQPQHTPSPAAPPAAATISAAGPGSSAVPAAAAVISGPGGGGGAGPVSPQHHELTSLFECPVCFDYVLPPILQCQAGHLVCNQCRQKLSCCPTCRGALTPSIRNLAMEKVASAVLFPCKYATTGCSLTLHHTEKPEHEDICEYRPYSCPCPGASCKWQGSLEAVMSHLMHAHKSITTLQGEDIVFLATDINLPGAVDWVMMQSCFGHHFMLVLEKQEKYEGHQQFFAIVLLIGTRKQAENFAYRLELNGNRRRLTWEATPRSIHDGVAAAIMNSDCLVFDTAIAHLFADNGNLGINVTISTCCP

— doi:10.1101/2021.12.30.474394
